This is an account of results in patent US20220025032A1 (Novartis, published 2022).

A word on the Kd: it is the free concentration of one partner at which half of the binding sites on the other are occupied at equilibrium, for simple one-to-one binding. For orientation: inhibition means the share of the control response that was lost under treatment. The low end stands for a response near the control, the high end for a response far below the control. As a reminder, the IC50 is the concentration that gives 50% inhibition.

Assay [1] has as its target T1, Human BTC (human, UniProt P35070 32-111).
T1 construct: Soluble human BTC of the Biacore, ELISA, MSD and cell assays; also called human betacellulin; soluble human BTC
T1 sequence: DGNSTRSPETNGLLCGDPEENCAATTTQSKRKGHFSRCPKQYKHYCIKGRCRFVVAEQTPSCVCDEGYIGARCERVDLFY
Nature of the assay: SPR (Biacore/ProteOn). Background: SPR reads the build-up and loss of mass on a sensor chip optically.

A further assay addresses T2, Mouse BTC (mouse, UniProt Q05928 32-111, limits assumed).
T2 sequence (looked up): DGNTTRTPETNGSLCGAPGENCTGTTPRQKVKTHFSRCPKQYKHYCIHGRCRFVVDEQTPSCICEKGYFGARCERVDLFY
Nature of the assay: SPR (Biacore/ProteOn).

The next assay concerns the target T3, Cyno BTC (cynomolgus, UniProt A0A2K5X5E5 32-111).
T3 construct: also called cynomolgus BTC
T3 sequence: T1 sequence with E19D, A56T
Nature of the assay: SPR (Biacore/ProteOn).

A further assay has as its target T4, Rat BTC (rat, UniProt Q9JJM4 32-111).
T4 sequence: T2 sequence (looked up) with V31S, V55M, R75Q
Nature of the assay: SPR (Biacore/ProteOn).

The target of another assay is T5, Rabbit BTC (rabbit, UniProt G1SJ89 32-111).
T5 sequence: T1 sequence with D1S, L14S, D17Y, E19G, A23T, T27V, S29P, V63I, I69T
As to the kind of experiment: SPR (Biacore/ProteOn).

Assay [2] deals with T1, Human BTC. As to the kind of experiment: cell-based or functional assay.
Assay [3] concerns the target T6, membrane-bound human BTC on 293F-hBTC cells (human, UniProt P35070 32-111).
T6 sequence: T1 sequence
As to the kind of experiment: cell-based or functional assay.

Assay [4] addresses T1, Human BTC. Nature of the assay: MSD-based inhibition of BTC binding to ErbB1.
The target in assay [5] is T1, Human BTC. Nature of the assay: SPR Biacore T200, anti-Fab capture, antigen as analyte.
In a further assay the target is T7, Human VEGF165 (human, UniProt P15692 27-191).
T7 construct: mature; biotinylated in the VEGFR2 ELISAs; also called human VEGF-A; VEGF-A
T7 sequence (P15692 other isoform, or with tags, fused parts or gaps): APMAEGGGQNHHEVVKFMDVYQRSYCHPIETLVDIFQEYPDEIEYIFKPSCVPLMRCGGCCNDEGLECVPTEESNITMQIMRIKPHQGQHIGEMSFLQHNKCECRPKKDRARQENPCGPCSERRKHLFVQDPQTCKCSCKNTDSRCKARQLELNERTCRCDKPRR
Nature of the assay: competition ELISA: antibody pre-incubated with VEGF-biotin, added to coated VEGFR2. As to the method: The plates were then washed 3 times using 1λTBST. The plates were blocked in 2% BSA diluent (0.1% Tween 20/0.1% TirtonX100) overnight. After blocking, the plates were washed 3 times using TB ST and then the sample mixture was added at 20 μl/well. The sample mixture consisted a final fixed concentration of VEGF-biotin (in-house) at 400 pM and a 15 point 1:2 serial dilution of the antibody starting at 20 nM. The sample mixture was pre-incubated for 1 hour prior to adding to the plate and then incubated for another hour at room temperature on the plate. Afterwards, the plate was washed 3 times using TBST and 20 μl/well of Streptavidin-HRP diluted at 1:5000 was added for an incubation time of 1 hour. The plates were washed 3 times in TBST and then 20 μl/well of TMB substrate was added. TMB is a chromogen that yields a blue color when oxidized. TMB was incubated for 10 minutes until the signal saturated in the no antibody samples, and then 10 μl/well of 2N sulfuric acid was added which then changes the blue color to yellow and this now has a maximum absorbance at 450 nm.
(In general: An ELISA detects its analyte on a solid surface through an enzyme-linked reagent.)

The target of assay [6] is T1, Human BTC. As to the kind of experiment: inhibition of BTC binding to ErbB4; y axis MSD units, x axis Antibody concentration (pM); blocked partner ErbB4.
The target in the next assay is T8, Human BTC-avitag-biotin (human, UniProt P35070 32-111, biotin on the avitag).
T8 construct: also called biotin-BTC; soluble human BTC-avitag-biotin
T8 sequence: T1 sequence
As to the kind of experiment: flow cytometry, BTC-ErbB4 Cell Binding Inhibition: antibody pre-incubated with 15 nM human BTC-avitag-biotin, HKB11 cells over-expressing human ErbB4; y axis Percent Inhibition. As to the method:
HKB11 over-expressing either ErbB1 or ErbB4 cells were plated 1×10⁵ cells/well. Cells were washed once with FACS buffer by spun down at 1200 rpm for 5 minutes and supernatant removed. Next, the Fab sample dilutions and BTC were prepared in FACS buffer. Human BTC-avitag-biotin was diluted to a fixed concentration of 15 nM. The test Fab samples were prepared at a starting concentration of 40 nM and titrated for 9 points at a serial dilution of 1:2. Both biotin-BTC and the test Fab samples are incubated for 30 minutes at room temperature. The pre-incubated samples were then added to the cell plate at 100 μl per well in duplicate and incubated for 1 hour on ice. The plate was then washed once in FACS buffer and spun down at 1200 rpm for 5 minutes and supernatant removed. […]
Measurements were performed on Attune Flow Cytometry machine. Data were analysed using the Flow Jo software. The live cell populations analysed were gated in forward and side scattering (FSC-A/SSC-A dot plot). The interval gate was established on the control histogram, which was obtained with sample incubated in streptavidin-Alexa Fluor488 only, and subsequently, determined percent of positive binding events of cells carrying membrane-bound receptor ErbB1 or ErbB4 and biotin-BTC. The median of fluorescence intensity (MFI) value was also derived for the live cell population. […]

Numbering of substitutions follows the chain as printed.

B1: NVS1 (Fab, V domains shown)
VH: QVQLVQSGAEVKKPGSSVKVSCKASGGTFSSYAISWVRQAPGQGLEWMGGIVPWMGEAVYAQKFQGRVTITADESTSTAYMELSSLRSEDTAVYYCARSSSTYGIHAFDYWGQGTLVTVSS
VL: DIQMTQSPSSLSASVGDRVTITCRASQSISNFLNWYQQKPGKAPKLLIYAASNLQSGVPSRFSGSGSGTDFTLTISSLQPEDFATYYCQQYDDFPMTFGQGTKVEIKR
notes: also called Fab NVS1; NVS1 Fab
For B1, the Kd in the assay with Human BTC [1] turned out to be 6 pM; in the assay with Mouse BTC, 4 pM; in the assay with Cyno BTC, 8 pM; with Rat BTC it was 7 pM; with Rabbit BTC, 4 pM; with Human BTC [5], 1.7 pM. For the same molecule, the “A431 pERK (IC50 in nM)” value in the assay with Human BTC [2] came out at 0.25 nM. For the same molecule, the “ADR/Res pErbB3 (IC50 in nM)” value with Human BTC [2] is 5.7 nM. Moreover, in the assay with Human BTC [2], the inhibition was determined as 99.7%. Besides, the “Neutralization of juxtacrine signaling” value in [3] was 89%. Besides, the “MSD-based binding inhibition BTC/ErbB1” value with Human BTC [4] was greater than 90%. In the assay with Human VEGF165, the binding result is recorded as “no binding (tested: 20000 pM)”. Moreover, the IC50 is 0.591 nM with Human BTC [6] and 7.4 nM with Human BTC-avitag-biotin.
